What was measured:
Assay in all cases: pull-down; GST fusion proteins (2 µg) on agarose beads, nuclease-treated, with in vitro translated [35S]-TRIM33; NETN buffer (20 mM Tris HCl pH 7.5, 100 mM NaCl, 1 mM EDTA, 0.5% NP-40, 1 mM DTT) with 200 µg/ml ethidium bromide, 1 h at 4 °C; phosphoimaging, bound as percent of input
[1] = molecular target: GST-IN N-terminal domain (HIV-1)
[2] = molecular target: GST-IN catalytic core domain (HIV-1)
[3] = molecular target: GST-IN full length (HIV-1)
[4] = molecular target: GST-IN C-terminal domain (HIV-1)

B1: in vitro translated [35S]-TRIM33 (natural protein)
chain: MAENKGGGEAESGGGGSGSAPVTAGAAGPAAQEAEPPLTAVLVEEEEEEGGRAGAEGGAAGPDDGGVAAASSGSAQAASSPAASVGTGVAGGAVSTPAPAPASAPAPGPSAGPPPGPPASLLDTCAVCQQSLQSRREAEPKLLPCLHSFCLRCLPEPERQLSVPIPGGSNGDIQQVGVIRCPVCRQECRQIDLVDNYFVKDTSEAPSSSDEKSEQVCTSCEDNASAVGFCVECGEWLCKTCIEAHQRVKFTKDHLIRKKEDVSESVGASGQRPVFCPVHKQEQLKLFCETCDRLTCRDCQLLEHKEHRYQFLEEAFQNQKGAIENLLAKLLEKKNYVHFAATQVQNRIKEVNETNKRVEQEIKVAIFTLINEINKKGKSLLQQLENVTKERQMKLLQQQNDITGLSRQVKHVMNFTNWAIASGSSTALLYSKRLITFQLRHILKARCDPVPAANGAIRFHCDPTFWAKNVVNLGNLVIESKPAPGYTPNVVVGQVPPGTNHISKTPGQINLAQLRLQHMQQQVYAQKHQQLQQMRMQQPPAPVPTTTTTTQQHPRQAAPQMLQQQPPRLISVQTMQRGNMNCGAFQAHQMRLAQNAARIPGIPRHSGPQYSMMQPHLQRQHSNPGHAGPFPVVSVHNTTINPTSPTTATMANANRGPTSPSVTAIELIPSVTNPENLPSLPDIPPIQLEDAGSSSLDNLLSRYISGSHLPPQPTSTMNPSPGPSALSPGSSGLSNSHTPVRPPSTSSTGSRGSCGSSGRTAEKTSLSFKSDQVKVKQEPGTEDEICSFSGGVKQEKTEDGRRSACMLSSPESSLTPPLSTNLHLESELDALASLENHVKIEPADMNESCKQSGLSSLVNGKSPIRSLMHRSARIGGDGNNKDDDPNEDWCAVCQNGGDLLCCEKCPKVFHLTCHVPTLLSFPSGDWICTFCRDIGKPEVEYDCDNLQHSKKGKTAQGLSPVDQRKCERLLLYLYCHELSIEFQEPVPASIPNYYKIIKKPMDLSTVKKKLQKKHSQHYQIPDDFVADVRLIFKNCERFNEMMKVVQVYADTQEINLKADSEVAQAGKAVALYFEDKLTEIYSDRTFAPLPEFEQEEDDGEVTEDSDEDFIQPRRKRLKSDERPVHIK
modifications: [35S]-labeled
percent of radiolabeled input bound [1]: < 3%
percent of radiolabeled input bound [2]: < 3%
percent of radiolabeled input bound [3]: > 8.5%
percent of radiolabeled input bound [4]: > 8.5%

— article PMC6389893
